Here are results for one substance from article PMC11588662.

In assay [1] the target is CD33 on human AML cells (Kasumi-1, HL-60, MOLM14) (human (endogenous in Kasumi-1, HL-60, MOLM14)) (UniProt P20138). In words: flow cytometry on cells; 50 ug CD117 or CD33 Db-FM injected i.v. into NSG mice engrafted with MOLM14-CD117^highGFP^+Luc^+ cells; femora collected after 1 and 6 h; MFI (APC anti-FITC) interpolated on an ex vivo titration of Db-FM on cells of a control mouse.

The target is the same in assay [2]. In words: flow cytometry on cells; MOLM14 GFP^-CD117^midCD33^+ cells stained with 10 nM of either Db-FM or both (10 nM each); fluorescence (MFI).

Chain of CD33 on human AML cells (Kasumi-1, HL-60, MOLM14) (human (endogenous in Kasumi-1, HL-60, MOLM14)) (P20138 18-364): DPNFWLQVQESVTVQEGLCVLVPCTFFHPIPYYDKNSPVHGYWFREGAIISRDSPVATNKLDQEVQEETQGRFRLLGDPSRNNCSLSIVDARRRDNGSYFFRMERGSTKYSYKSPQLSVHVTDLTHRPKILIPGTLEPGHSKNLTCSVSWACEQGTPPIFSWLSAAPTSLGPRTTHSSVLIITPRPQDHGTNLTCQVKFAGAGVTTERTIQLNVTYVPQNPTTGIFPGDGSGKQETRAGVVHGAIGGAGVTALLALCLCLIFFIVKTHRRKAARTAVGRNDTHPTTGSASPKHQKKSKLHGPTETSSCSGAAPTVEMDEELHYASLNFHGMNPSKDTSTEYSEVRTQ

Turning to “CD33 Db-FM (fluorescein-maleimide-labelled anti-CD33 diabody, clone SGN-33)”, in assay [1], the interpolated on-tumor Db-FM concentration 1 h after injection was determined as 0.99 nM and the interpolated on-tumor Db-FM concentration 6 h after injection was 0.22 nM. In addition, the MFI in assay [2] is 942.
